These results are taken from the supplement of paper PMC9170038.

For the series, the system named is MS2 coat protein. In words: apparent KD of MS2 coat protein; designed switch direction (-1 OFF switch, 1 ON switch): -1; higher = weaker reporter binding. Summed up:
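For each design, the apparent KD is the median over clusters of curves fitted to normalised cluster fluorescence. Clusters held RNA switches with common flanks, transcribed on Illumina chips by stalled E. coli RNA polymerase. These were titrated with SNAP-549-labelled MS2 coat protein, doubling from 0.7 or 1.5 nM to 3 µM, without input, with 200 uM small-molecule ligand, or with an oligonucleotide input.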

Setting [1] is: Eterna round: R95, input ligand: FMN 200 uM.
The mark [2] stands for this setting: Eterna round: R95, input ligand: microRNA oligo, concentration not stated.
[3] abbreviates: Eterna round: R95, input ligand: none.
[4] abbreviates: input ligand: microRNA oligo, concentration not stated.

“GCCUUAUGAGUCAGGAUAUACAAUAAAAUAAUUAAGUAGAAGGGACAUGAGGAUCACCCAUGUACAUUACAUUG [alecazam28] (Eterna round: R97, puzzle: Brourd's mod of Exclusion 4)”: the “apparent KD of MS2 coat protein” value (input ligand: FMN 200 uM) was 0.0824 µM and the “apparent KD of MS2 coat protein” value (input ligand: none) worked out at 0.0216 µM.

Take “GCGAAAGCAAGCAGGUGAAACAUGAGGAUCACCCAUGUCCUCAUUUGCUCGUCUUAUAAGCUAUGCGAAAGCAUAGC [Sensor 3, v1 - 3] (puzzle: Sensor v3, turn-off variant 1)”: the “apparent KD of MS2 coat protein” value runs as follows: under setting [1], 0.0137 µM; under setting [2], 0.113 µM; under setting [3], 0.0125 µM.

In the case of “GCGCAGCUGGUAGGAUAUUACAGACAGGACUCACGUAAGGGAGCCUGACAUGAGGAUCACCCAUGUAAGAAGGGCCGUGGUAUC [Eternabot solution 11] (Eterna round: R96, puzzle: Exclusion NG 2)”, the “apparent KD of MS2 coat protein” value was found to be 0.0345 µM (input ligand: FMN 200 uM), 0.0198 µM under setting [4] and 0.0225 µM (input ligand: none).

Consider “GCGCCAUCGUGAGAUGGCGUAACGACAUGAGGAUCACCCAUGUAGGAUAUCGAUUGCUUUGCAGUCGAGAAGGGCAAGGUAAGU [JL ENG3 3.83] (Eterna round: R96, puzzle: Exclusion NG 3)”, for which the “apparent KD of MS2 coat protein” value under setting [4] amounted to 0.0243 µM.

Take “GCGCCAUCGUGAGAUGGCGUAUUUACAUGAGGAUCACCCAUGUAGGAUAUCGAUUGCUUUGCAGUCGAGAAGGGCAUGAUAAGU [JL ENG3 3.78] (Eterna round: R96, puzzle: Exclusion NG 3)”: the “apparent KD of MS2 coat protein” value was determined as 0.0725 µM (input ligand: FMN 200 uM), 0.0373 µM under setting [4] and 0.0545 µM (input ligand: none).

“GCGCCAUCGUGAGAUGGCGUUUCGACAUGAGGAUCACCCAUGUAGGAUAUCGAUUGCUUUGCAGUCGAGAAGGGCGUGAUAAGU [JL ENG3 3.72] (Eterna round: R96, puzzle: Exclusion NG 3)”: the “apparent KD of MS2 coat protein” value was found to be 0.104 µM (input ligand: FMN 200 uM), 0.0744 µM under setting [4] and 0.0982 µM (input ligand: none).

Consider “GCGCUGUCAGGAUAUCGCGCGCGCGCGGAAAUGUGUGUGUGUGAGAAGGGACAUGAGGAUCACCCAUGUGGUGU [-28.5, -27.5 kcal, A 20%, 6-6bis] (Eterna round: R97, puzzle: Exclusion 4)”, for which the “apparent KD of MS2 coat protein” value (input ligand: FMN 200 uM) stood at 0.213 µM and the “apparent KD of MS2 coat protein” value (input ligand: none) came to 0.583 µM.

As to “GCGCUGUCAGGAUAUGUGUGUGUGUGUGAAAGCGCGCGCGCGCAGAAGGGACAUGAGGAUCACCCAUGUGGUGU [-31.2, -30.2 kcal, A 20%, 6bis-6bis] (Eterna round: R97, puzzle: Exclusion 4)”, the “apparent KD of MS2 coat protein” value reads like this: (input ligand: FMN 200 uM) 0.0787 µM; (input ligand: none) 0.265 µM.

“GCGGACUAGAUCGUGAGAUCUGAGACAUGAGGAUCACCCAUGUAGGAUAUCGAUUCGAAACGAAUCGAGAAGGGCAUAGUCCGC [JL denovo 8] (Eterna round: R96, puzzle: Exclusion NG 3)”: the “apparent KD of MS2 coat protein” value is 0.0231 µM (input ligand: FMN 200 uM), 0.016 µM under setting [4] and 0.022 µM (input ligand: none).

As to “GCGGUAUUCCCUGGAGUACCAUACAUGAGGAUCACCCAUGUAUAGGAUAUUGCAGGAGACAGCUGCGAGAAGGGUACAGGGUGU [Dierceza] (Eterna round: R96, puzzle: Exclusion NG 3)”, the “apparent KD of MS2 coat protein” value runs as follows: (input ligand: FMN 200 uM) 0.0266 µM; under setting [4], 0.0144 µM; (input ligand: none) 0.0159 µM.

As to “GCGUGAAGGCAGGAUAUAAGAAAAGAAAGAAAAUUAGAAGGGCCGACAUGAGGAUCACCCAUGUGGGCAUGAUC [Xeorusza] (Eterna round: R97, puzzle: Exclusion 6)”, the “apparent KD of MS2 coat protein” value reads like this: (input ligand: FMN 200 uM) 0.0338 µM; (input ligand: none) 0.0159 µM.

Turning to “GCGUGUGCCUAGGAUAUUGGGAAUAUGCAGAAACGAGAAGGAGGCACAUGAGGAUCACCCAUGUGAUGAAAAGA [Teesedri] (puzzle: Exclusion 6)”, the “apparent KD of MS2 coat protein” value stood at 0.0167 µM under setting [1], 0.0456 µM under setting [2] and 0.0617 µM under setting [3].

On to “GCUAGAGCAGGAUAUCUAGAUCCACACAUGAGGAUCACCCAUGUACGGUCGAAAGACCGAAGAGAAGGGCUCUAGC [Omei Ex5 E12] (Eterna round: R97, puzzle: Exclusion 5)”, for which the “apparent KD of MS2 coat protein” value came to 0.0985 µM (input ligand: FMN 200 uM) and 0.067 µM (input ligand: none).

For “GCUAGGAAUGUCAGGAUAUGCUGAUCCUUGGAUCAGCAGAAGGGACAUGAGGAUCACCCAUGUGCUAACCUAGC [Mat - Exclusion 4 - JL Mod - D6] (Eterna round: R97, puzzle: Brourd's mod of Exclusion 4)”, the “apparent KD of MS2 coat protein” value reads like this: (input ligand: FMN 200 uM) 0.177 µM; (input ligand: none) 0.0308 µM.

Turning to “GCUCUUGGGCAAGGAUAUCCUGCGCGGUUCCGGUUCGUGUCUGUCACAUGAGGAUCACCCAUGUGGGAGAAGGUGCCUGCGGUG [Design 74] (Eterna round: R96, puzzle: Exclusion NG 2)”, the “apparent KD of MS2 coat protein” value is 0.0286 µM (input ligand: FMN 200 uM), 0.0123 µM under setting [4] and 0.0159 µM (input ligand: none).

For the sequence “GCUGGUCAAGGAUAUACAUGAGGAUCACCCAUGUGGUCACGUGACGAUAGUCACGAAUGUAGAAGGUGACCAGC [E3/3-C1] (Eterna round: R97, puzzle: Exclusion 3)”, the “apparent KD of MS2 coat protein” value reads like this: (input ligand: FMN 200 uM) 0.0511 µM; (input ligand: none) 0.26 µM.

Consider “GCUGGUCGAGGAUAUACAUGAGGAUCACCCAUGUGGUCACGUGACGAUAGUCACGAAUGUAGAAGGCGACCAGC [E3/3-A1] (Eterna round: R97, puzzle: Exclusion 3)”, for which the “apparent KD of MS2 coat protein” value runs as follows: (input ligand: FMN 200 uM) 0.0669 µM; (input ligand: none) 0.161 µM.

Take “GCUGGUCGAGGAUAUGCAUACACUGGAUACAGUGGAAGGUCACAUGAGGAUCACCCAUGUAGAAGGCGACCAGC [EX2 #35] (Eterna round: R97, puzzle: Exclusion 2)”: the “apparent KD of MS2 coat protein” value by setting is: (input ligand: FMN 200 uM) 0.122 µM; (input ligand: none) 0.0351 µM.

Regarding “GCUUCGUCUGUGGGUGGUGACAUGAGGAUCACCCAUGUUUUGCUCGUCUUGUGCCGGGCCCGGCGCCCGGGCCCGGC [-38.7, -63.8, A 8%] (Eterna round: R97, puzzle: Sensor, turn-off variant 1)”, the “apparent KD of MS2 coat protein” value stood at 0.721 µM (input ligand: FMN 200 uM) and 0.955 µM (input ligand: none).

As to “GCUUGACGAGGAUAUGCAUACACUGGAUACAGUGGAAGGUCACAUGAGGAUCACCCAUGUAGAAGGCGUCGAGC [EX2 #40] (Eterna round: R97, puzzle: Exclusion 2)”, the “apparent KD of MS2 coat protein” value was found to be 0.123 µM (input ligand: FMN 200 uM) and 0.0354 µM (input ligand: none).

“GCUUGUCGAGGAUAUGCAUACACUGGAUACAGUGGAAGGUCACAUGAGGAUCACCCAUGUAGAAGGCGACGAGC [EX2 #39] (Eterna round: R97, puzzle: Exclusion 2)”: the “apparent KD of MS2 coat protein” value reads like this: (input ligand: FMN 200 uM) 0.121 µM; (input ligand: none) 0.0418 µM.

In the case of “GCUUGUCUUUAGGAUAUCGUGAGGCCCUUCAUACGAGAAGGAAAGACAUGAGGAUCACCCAUGUCGGGUAUCAC [Eternabot (L1) Solution 28] (Eterna round: R97, puzzle: Exclusion 6)”, the “apparent KD of MS2 coat protein” value runs as follows: (input ligand: FMN 200 uM) 0.0518 µM; (input ligand: none) 0.0208 µM.

Take “GCUUGUGGGCAAGGAUAUCCUACGUUGUUCUGGUUCGUGUCUGUCACAUGAGGAUCACCCAUGUGGGAGAAGGUGCAUUUGGGU [Design 59] (Eterna round: R96, puzzle: Exclusion NG 2)”: the “apparent KD of MS2 coat protein” value was found to be 0.0179 µM (input ligand: FMN 200 uM), 0.0138 µM under setting [4] and 0.018 µM (input ligand: none).

As to “GGAAAGCAAGGAUAUACAAGGAAACGAUGGAAAGUAGAGAGACAUGAGGAUCACCCAUGUAGAAGGUGCGAGAG [JR_Exclu2_Sub037] (puzzle: Exclusion 2)”, the “apparent KD of MS2 coat protein” value runs as follows: under setting [1], 0.0369 µM; under setting [2], 0.0249 µM; under setting [3], 0.0253 µM.

On to “GGAAAGUGAGGAUAUGGUAAUUUAAUUAUUAAUUAAUUAAUCCAGAAGGCACAUGAGGAUCACCCAUGUAAAGG [Mat - Exclusion 4 - D92] (puzzle: Exclusion 4)”, for which the “apparent KD of MS2 coat protein” value under setting [2] turned out to be 0.0307 µM.

As for “GGAACUGGAGGAUAUACAUGAGGAUCACCCAUGUAUAGAUAUGGUUAUUAGCCUCAUAGUAGAAGGUUAGUGGC [EX3 C.4] (Eterna round: R97, puzzle: Exclusion 3)”, the “apparent KD of MS2 coat protein” value runs as follows: (input ligand: FMN 200 uM) 0.0216 µM; (input ligand: none) 0.0201 µM.

On to “GGACCGUAAGGAUAUGGCACGAAUCGACAGUCGAUCUCGAGCUAGAAGGUACAUGAGGAUCACCCAUGUCCGUU [Eternabot (L1) Solution 13] (Eterna round: R97, puzzle: Exclusion 4)”, for which the “apparent KD of MS2 coat protein” value (input ligand: FMN 200 uM) was 0.0254 µM and the “apparent KD of MS2 coat protein” value (input ligand: none) turned out to be 0.0192 µM.

With “GGAGGGAAAGUGAGGAUAUCCGGAGGGAAACCUCCGGAGAAGGCACAUGAGGAUCACCCAUGUAAGGAAGGAGG [AK-MS2ROC-r4-Bmoexclusion4-1.1] (Eterna round: R97, puzzle: Brourd's mod of Exclusion 4)”, the “apparent KD of MS2 coat protein” value was found to be 0.203 µM (input ligand: FMN 200 uM) and 0.135 µM (input ligand: none).

“GGAUAAGGCGAGGAUAUCCAGAAACCCGACAAAGGAGAAGGCGCAACAUGAGGAUCACCCAUGUGGGUGCAUGU [Xeaormara] (puzzle: Exclusion 6)”: the “apparent KD of MS2 coat protein” value runs as follows: under setting [1], 1.08 µM; under setting [2], 0.254 µM; under setting [3], 0.28 µM.

Take “GGAUCGAAAGUGAGGAUAUACCUAUGGAUACAUAGGUAGAAGGCACAUGAGGAUCACCCAUGUUCCUACGGUCC [Eli bmx4 4.10] (Eterna round: R97, puzzle: Brourd's mod of Exclusion 4)”: the “apparent KD of MS2 coat protein” value runs as follows: (input ligand: FMN 200 uM) 0.114 µM; (input ligand: none) 0.0184 µM.

Take “GGAUCGAAUGUGAGGAUAUGCUGGUCCUUGGAUCAGCAGAAGGCACAUGAGGAUCACCCAUGUCCAAACGGUCC [Eli bmx4 4.44] (Eterna round: R97, puzzle: Brourd's mod of Exclusion 4)”: the “apparent KD of MS2 coat protein” value runs as follows: (input ligand: FMN 200 uM) 0.352 µM; (input ligand: none) 0.525 µM.
